This passage reports Pi released by GTP hydrolysis (MESG/PNP phosphate assay), endpoint as percent of the theoretical maximum, pH 6.0, 0.2 mM GTP, 11 uM FtsZ, Pi released by GTP hydrolysis (MESG/PNP phosphate assay), endpoint as percent of the theoretical maximum, pH 6.5, 0.2 mM GTP, 11 uM FtsZ and Pi released by GTP hydrolysis (MESG/PNP phosphate assay), endpoint as percent of the theoretical maximum, pH 7.0, 0.2 mM GTP, 11 uM FtsZ results from publication PMC3125165.

This assay deals with Escherichia coli FtsZ (Escherichia coli) (UniProt P0A9A6).

For “Escherichia coli FtsZ (from UniProt P0A9A6 1-383) (natural protein)”, the Pi released by GTP hydrolysis (MESG/PNP phosphate assay), endpoint as percent of the theoretical maximum, pH 6.0, 0.2 mM GTP, 11 uM FtsZ is 90%; the Pi released by GTP hydrolysis (MESG/PNP phosphate assay), endpoint as percent of the theoretical maximum, pH 6.5, 0.2 mM GTP, 11 uM FtsZ worked out at 96%; the Pi released by GTP hydrolysis (MESG/PNP phosphate assay), endpoint as percent of the theoretical maximum, pH 7.0, 0.2 mM GTP, 11 uM FtsZ was determined as 87%.
